What was measured:
[1] = target: T1, biotinylated recombinant human trimeric ARG2 enzyme (Homo sapiens, UniProt P78540, E275H/R327K); test: C0020187 IgG epitope competition HTRF assay; assay type: binding; conditions: clones in scFv format, FIG. 8; read-out: 18° IgG epitope competition assay IC50
T1 construct: His10 (after a GGG linker) (C); made in house; host or cells: E. coli BL21 (DE3)
T1 sequence (P78540 with tags, fused parts or gaps E275H/R327K): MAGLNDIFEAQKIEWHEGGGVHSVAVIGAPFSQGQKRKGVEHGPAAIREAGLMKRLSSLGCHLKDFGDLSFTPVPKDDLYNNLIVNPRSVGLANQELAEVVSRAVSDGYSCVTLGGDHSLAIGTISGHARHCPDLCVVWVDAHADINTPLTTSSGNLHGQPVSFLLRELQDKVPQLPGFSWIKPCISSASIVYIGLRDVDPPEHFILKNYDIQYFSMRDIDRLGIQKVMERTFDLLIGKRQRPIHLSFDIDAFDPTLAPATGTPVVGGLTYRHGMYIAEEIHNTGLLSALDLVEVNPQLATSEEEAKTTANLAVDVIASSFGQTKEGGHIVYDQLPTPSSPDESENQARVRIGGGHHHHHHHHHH
Description: Two thousand and twenty four scFv chosen at random from selection rounds 3 and 4 of the targeted mutagenesis approach described in section 2.2, 2.3 and 2.4 were expressed in E. coli to produce unpurified periplasmic scFv. Those scFv capable of competing with C0020187 IgG for binding to recombinant human trimeric ARG2 enzyme (i.e., those scFv that bind at or near the epitope bound by C0020187 IgG) were elucidated in a competition format assay, using the HTRF™ platform. […]
A ‘Maximum’ binding signal was determined by analysing the binding of C0020187 IgG to biotinylated recombinant human trimeric ARG2 enzyme in the absence of competitor scFv. […] Finally, a ‘Background’ signal was determined by analysing the fluorescence generated in the absence of C0020187 IgG.
Unpurified periplasmic scFv were supplied in sample buffer consisting of 200 mM tris base, pH 7.4, 0.5 mM EDTA, and 0.5 M sucrose. […] Assay plates were sealed and then incubated overnight at room temperature in the dark, prior to measuring time-resolved fluorescence at 620 and 665 nm emission wavelengths on a fluorescence plate reader.
Data were analysed by calculating % Delta F values for each sample. % Delta F was determined according to equation 1. […]
Data were again analysed by calculating the % Delta F and % Control binding values for each sample. […]

trimeric human ARG2 = target: T2, trimeric human ARG2 (Homo sapiens, UniProt P78540); test: Human trimeric ARG2 enzyme inhibition assay (urea production); assay type: biochemical; conditions: clones in scFv format, FIG. 9; read-out: Trimeric human ARG2 EIA IC50
T2 construct: human ARG2 (aa23-354); His10 (C); made in house; host or cells: E. coli BL21 (DE3)
T2 sequence (P78540 23-354): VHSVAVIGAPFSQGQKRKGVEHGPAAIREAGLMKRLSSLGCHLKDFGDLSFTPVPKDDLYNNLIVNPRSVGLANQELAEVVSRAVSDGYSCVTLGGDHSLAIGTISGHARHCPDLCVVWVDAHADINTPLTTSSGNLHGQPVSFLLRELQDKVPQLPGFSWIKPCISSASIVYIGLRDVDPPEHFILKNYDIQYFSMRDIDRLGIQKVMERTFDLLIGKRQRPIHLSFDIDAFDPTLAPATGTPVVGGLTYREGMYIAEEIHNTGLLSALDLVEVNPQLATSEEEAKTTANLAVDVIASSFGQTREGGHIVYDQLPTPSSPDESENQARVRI
Method: Unpurified anti-ARG2 scFv fragments from periplasmic preparations were screened in an ARG2 enzyme inhibition assay using a Pherastar plate reader (BMG Labtech, Germany). In this assay, the ability of unpurified scFv to inhibit the enzymatic activity of trimeric ARG2 was determined by measuring the production of urea, the product of L-arginine turnover by ARG2.
Selection outputs were screened as unpurified bacterial periplasmic extracts containing scFv, prepared in 200 mM TES buffer pH 7.4, 0.5 mM EDTA and 0.5 M sucrose. 10 μl of unpurified scFv were added to a Greiner Bio-One® 384 well assay plate (Greiner Bio-one, UK; cat: 781901). This was followed by the addition of 5 μl of 1.6 μg/ml trimeric human ARG2 that had been diluted in 40 mM MnCl2, 100 mM tris-HCl, pH7.4 (4× enzyme buffer). […]
Urea was detected by the simultaneous addition of equal volumes of O-Phthaldialdehyde (1.5 mM O-Phthaldialdehyde, 7% H2SO4, 0.03% Brij L23) and N-(1-Napthyl)ethylenediamine (1.66 mM N-(1-Napthyl)ethylenediamine, 81 mM Boric acid, 21% H2SO4, 0.03% Brij L23) followed by an 18 minute incubation at room temperature before the colorimetric product was quantified on the Pherastar by measuring absorbance at 505 nm. […]
Data were analysed by calculating % maximum (max) control for each sample using the 505 nm absorbance data. % max control was determined according to equation 2. […]
IC50 values were determined by testing a dilution series of the purified scFv, prepared in TBS, in the ARG2 enzyme inhibition assay described in section 1.5, substituting the unpurified scFv periplasmic preparation with the purified scFv.
Background control wells were defined for each plate by the omission of substrate. […] Data were analysed by calculating % maximum (max) control for each sample. % max control was determined according to equation 1 detailed in section 1.5. […]
Data were again analysed by calculating % Max control values for each sample. […]

IC50 [1]: 57.8 nM | IC50 (trimeric human ARG2): 97.6 nM
B1: C0021142: anti-ARG2 antibody, VH SEQ ID NO: 232, VL SEQ ID NO: 237 (antibody, listed as Homo sapiens, V domains shown)
VH: EVQLLESGGGLVQPGGSLRLSCAASGFTFSSYAMSWVRQAPGKGLEWVSAHTHSPGSTYYADSVKGRFTISRDNSKNTLYLQMNSLRAEDTAVYYCARLRADLGLYMDLWGRGTLVTVSS
VL: QSVLTQPPSVSAAPGQKVTISCSGSSSNIGNHYVSWYQQLPGTAPKLLIYDNSERPSGVPDRFSGSKSGTSATLGITGLQTGDEADYYCGTWDSSLSALVFGGGTKLTVL
modifications: C0021142

From patent publication US20220403048A1, “BINDING MOLECULES TO ARGINASE II [ARG2]” (Cancer Research Technology Limited, priority 2019, published 2022)
